Assay [1] concerns the target T1, activin C (UniProt P55103 237-352).
T1 sequence (looked up): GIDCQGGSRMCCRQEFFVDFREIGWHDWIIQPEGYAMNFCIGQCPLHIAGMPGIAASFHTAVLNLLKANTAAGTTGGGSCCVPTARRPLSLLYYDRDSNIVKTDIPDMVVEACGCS
Description: SPR (Biacore), Fc fusion captured by anti-Fc antibody. A general note: Surface plasmon resonance follows binding to a sensor surface in real time, without labels.

The target in assay [2] is T2, BMP9 (UniProt Q9UK05 320-429).
T2 construct: also called GDF2
T2 sequence (looked up): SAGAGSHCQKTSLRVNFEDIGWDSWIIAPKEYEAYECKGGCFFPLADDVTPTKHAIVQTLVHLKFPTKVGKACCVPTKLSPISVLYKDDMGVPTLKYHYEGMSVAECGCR
Described as above.

Assay [3] has as its target T3, BMP5 (UniProt P22003 317-454, limits assumed).
T3 sequence (looked up): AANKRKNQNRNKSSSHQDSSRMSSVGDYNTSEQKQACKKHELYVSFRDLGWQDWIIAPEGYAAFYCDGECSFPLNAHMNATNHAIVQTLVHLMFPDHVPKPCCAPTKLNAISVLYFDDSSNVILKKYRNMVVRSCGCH
The description is as above.

The target of assay [4] is T4, activin A (UniProt P08476 311-426).
T4 sequence (looked up): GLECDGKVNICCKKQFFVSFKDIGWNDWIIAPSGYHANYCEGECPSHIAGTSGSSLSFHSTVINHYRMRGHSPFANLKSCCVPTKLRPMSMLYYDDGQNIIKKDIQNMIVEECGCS
Described as above.

For assay [5], the target named is T5, BMP10 (UniProt O95393 317-424).
T5 sequence (looked up): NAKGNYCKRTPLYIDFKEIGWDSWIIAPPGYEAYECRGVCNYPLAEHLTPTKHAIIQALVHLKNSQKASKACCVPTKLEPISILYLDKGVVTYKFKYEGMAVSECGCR
The assay is described as above.

In assay [6] the target is T6, BMP6 (UniProt P22004 375-513, limits assumed).
T6 sequence (looked up): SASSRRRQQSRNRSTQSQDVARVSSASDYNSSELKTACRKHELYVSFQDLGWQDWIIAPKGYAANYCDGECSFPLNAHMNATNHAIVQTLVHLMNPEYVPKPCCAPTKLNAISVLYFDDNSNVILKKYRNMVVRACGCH
The description is as above.

In assay [7] the target is T7, GDF11 (UniProt O95390 299-407).
T7 construct: also called BMP11
T7 sequence (looked up): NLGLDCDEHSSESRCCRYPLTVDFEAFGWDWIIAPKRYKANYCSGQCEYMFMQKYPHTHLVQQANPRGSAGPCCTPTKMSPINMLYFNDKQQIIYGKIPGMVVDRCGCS
The assay is described as above.

The target of assay [8] is T8, GDF3 (UniProt Q9NR23 251-364).
T8 sequence (looked up): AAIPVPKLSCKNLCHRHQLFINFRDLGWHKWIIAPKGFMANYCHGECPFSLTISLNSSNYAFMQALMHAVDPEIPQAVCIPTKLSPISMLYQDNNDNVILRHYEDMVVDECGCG
Described as above.

The target of assay [9] is T9, activin B (UniProt P09529 293-407).
T9 sequence (looked up): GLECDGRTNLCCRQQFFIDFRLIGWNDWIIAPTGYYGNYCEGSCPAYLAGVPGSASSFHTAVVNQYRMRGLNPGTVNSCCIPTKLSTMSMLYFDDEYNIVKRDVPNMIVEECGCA
Described as above.

Assay [10] deals with T10, GDF8 (UniProt O14793 267-375).
T10 construct: also called myostatin
T10 sequence (looked up): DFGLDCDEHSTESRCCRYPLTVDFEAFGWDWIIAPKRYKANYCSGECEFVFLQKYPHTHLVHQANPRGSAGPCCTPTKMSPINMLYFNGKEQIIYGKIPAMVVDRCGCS
Described as above.

Assay [11] concerns the target T11, activin AC (UniProt P08476 311-426; P55103 237-352).
T11 construct: Heterodimer of beta A and beta C subunits
T11 sequence (looked up) 1: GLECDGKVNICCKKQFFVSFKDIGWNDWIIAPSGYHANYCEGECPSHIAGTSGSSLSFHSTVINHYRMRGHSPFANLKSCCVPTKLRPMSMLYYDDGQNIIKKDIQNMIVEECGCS
T11 sequence (looked up) 2: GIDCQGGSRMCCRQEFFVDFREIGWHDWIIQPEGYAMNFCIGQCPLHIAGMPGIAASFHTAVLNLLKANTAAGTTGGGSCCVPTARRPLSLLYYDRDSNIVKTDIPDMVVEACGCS
The description is as above.

Assay [12] concerns the target T4, activin A. As to the kind of experiment: SPR (Biacore), Fc fusion captured by anti-Fc antibody, 37 C.
For assay [13], the target named is T5, BMP10. The description is as above.
Assay [14] concerns the target T2, BMP9. Described as above.
Assay [15] has as its target T4, activin A. The assay is described as above. The source holds these as a separate data set.
Assay [16] addresses T5, BMP10. The assay is described as above. This is another data set of the same source.
The target of assay [17] is T6, BMP6. The description is as above.
In assay [18] the target is T7, GDF11. The description is as above.
In assay [19] the target is T8, GDF3. The assay is described as above.
In assay [20] the target is T9, activin B. Described as above.
Assay [21] addresses T10, GDF8. The assay is described as above.
The target of assay [22] is T7, GDF11. Description: not described.

These results are taken from US20240197902A1 (ACCELERON PHARMA, published 2024).

The Kd is the constant that tells how readily two partners part at equilibrium. A low value points to higher affinity. By koff is commonly meant a measure of how fast the partners let go of each other. A low value points to a long-lived complex. One may read the kon as the rate constant with which the complex forms. Read a high kon as faster complex formation.

B1: ActRIIB-Fc:ALK7-Fc heterodimer (Fc fusion)
chain 1: GRGEAETRECIYYNANWELERTNQSGLERCEGEQDKRLHCYASWRNSSGTIELVKKGCWLDDFNCYDRQECVATEENPQVYFCCCEGNFCNERFTHLPEAGGPEVTYEPPPTAPT
chain 2: ELSPGLKCVCLLCDSSNFTCQTEGACWASVMLTNGKEQVIKSCVSLPELNAQVFCHSSNNVTKTECCFTDFCNNITLHLPTASPNAPKLGPME
Take B1: the Kd in assay [1] is 6.9 nM; in assay [2] it was greater than 1.4 nM; in assay [3], 57 nM; in assay [4], 0.043 nM; in [5], 0.19 nM; in assay [6], 5.3 nM. Moreover, the Kd came out at 0.008 nM in [7]; 4.5 nM in [8]; 0.017 nM in [9]; 0.27 nM in assay [10]; 0.22 nM in assay [11]. For the same molecule, the koff in assay [1] is 0.0024 s⁻¹; in assay [3] it was 0.0085 s⁻¹; in [4], 0.0019 s⁻¹; in assay [5] it was 0.0028 s⁻¹; in assay [6] it was 0.0063 s⁻¹; in [7], 0.00075 s⁻¹. Also, the off-rate (koff) was found to be 0.01 s⁻¹ in assay [8], 0.0002 s⁻¹ in assay [9], 0.001 s⁻¹ in assay [10] and 0.00057 s⁻¹ in assay [11]. Also, the kon stood at 350000 M⁻¹ s⁻¹ in assay [1]; 150000 M⁻¹ s⁻¹ in assay [3]; 4.4e+07 M⁻¹ s⁻¹ in assay [4]; 1.5e+07 M⁻¹ s⁻¹ in assay [5]; 1.2e+06 M⁻¹ s⁻¹ in assay [6]; 9.5e+07 M⁻¹ s⁻¹ in [7]. For the same molecule, the kon was 2.3e+06 M⁻¹ s⁻¹ in [8], 1.2e+07 M⁻¹ s⁻¹ in assay [9], 3.7e+06 M⁻¹ s⁻¹ in assay [10] and 2.6e+06 M⁻¹ s⁻¹ in [11].

B2: ActRIIB-Fc:ActRIIB(L79E)-Fc heterodimer (Fc fusion)
chain 1: GRGEAETRECIYYNANWELERTNQSGLERCEGEQDKRLHCYASWRNSSGTIELVKKGCWLDDFNCYDRQECVATEENPQVYFCCCEGNFCNERFTHLPEAGGPEVTYEPPPTAPT
chain 2: GRGEAETRECIYYNANWELERTNQSGLERCEGEQDKRLHCYASWRNSSGTIELVKKGCWEDDFNCYDRQECVATEENPQVYFCCCEGNFCNERFTHLPEAGGPEVTYEPPPTAPT
For B2, the “fold faster off-rate than ActRIIB-Fc homodimer” value in assay [12] and in assay [13] was roughly 10 fold throughout. Also, the dissociation constant (Kd) in assay [14] was greater than 2.8 nM; in [15], 0.17 nM; in [16], 0.042 nM; in assay [17], 0.056 nM; in [18], 0.009 nM; in assay [19], 10 nM. Also, the dissociation constant (Kd) in assay [20] is 0.025 nM; in assay [21], 0.15 nM. Moreover, the koff in assay [15] came to 0.0015 s⁻¹; in [16], 0.002 s⁻¹; in assay [17] it was 0.018 s⁻¹; in assay [18] it was 0.00036 s⁻¹; in [19], 0.0059 s⁻¹; in assay [20], 0.00021 s⁻¹. Also, the koff in [21] is 0.0005 s⁻¹. Also, the kon in assay [15] came to 8.8e+06 M⁻¹ s⁻¹; in [16] it was 4.8e+07 M⁻¹ s⁻¹; in assay [17], 3.3e+08 M⁻¹ s⁻¹; in assay [18] it was 4e+07 M⁻¹ s⁻¹; in assay [19], 580000 M⁻¹ s⁻¹; in assay [20] it was 8.3e+06 M⁻¹ s⁻¹. Also, the kon in assay [21] amounted to 3.4e+06 M⁻¹ s⁻¹.

B3: ActRIIB-Fc with C-terminal tail (A64 background) (Fc fusion)
chain: SGRGEAETRECIYYNANWELERTNQSGLERCEGEQDKRLHCYASWANSSGTIELVKKGCWLDDFNCYDRQECVATEENPQVYFCCCEGNFCNERFTHLPEAGGPEVTYEPPPTAPTGGGTHTCPPCPAPELLGGPSVFLFPPKPKDTLMISRTPEVTCVVVDVSHEDPEVKFNWYVDGVEVHNAKTKPREEQYNSTYRVVSVLTVLHQDWLNGKEYKCKVSNKALPVPIEKTISKAKGQPREPQVYTLPPSREEMTKNQVSLTCLVKGFYPSDIAVEWESNGQPENNYKTTPPVLDSDGSFFLYSKLTVDKSRWQQGNVFSCSVMHEALHNHYTQKSLSLSPGK
notes: Alanine at position 64; also called preferred version of ActRIIB-Fc
Turning to B3, the binding result in assay [22] is given as “binds”.
